# Assay results from patent US20190381169A1, “PHARMACEUTICAL COMBINATIONS FOR IMMUNOTHERAPY” (Technische Universitat Dresden, priority 2014, published 2019).
# “Also recorded” adds a separate entry of the source.
# Assays:
# [1] = target: T1, p75^NTR (Mus musculus, UniProt Q9Z0W1); test: Expression of MHC and co-stimulatory molecules on murine PDCs; format: cell-based
# T1 construct: endogenous in cells; host or cells: murine plasmacytoid dendritic cells differentiated in vitro from bone marrow with Flt3-L (p75NTR+/+ wildtype; p75NTR-/- as control)
# T1 sequence (Q9Z0W1 32-427): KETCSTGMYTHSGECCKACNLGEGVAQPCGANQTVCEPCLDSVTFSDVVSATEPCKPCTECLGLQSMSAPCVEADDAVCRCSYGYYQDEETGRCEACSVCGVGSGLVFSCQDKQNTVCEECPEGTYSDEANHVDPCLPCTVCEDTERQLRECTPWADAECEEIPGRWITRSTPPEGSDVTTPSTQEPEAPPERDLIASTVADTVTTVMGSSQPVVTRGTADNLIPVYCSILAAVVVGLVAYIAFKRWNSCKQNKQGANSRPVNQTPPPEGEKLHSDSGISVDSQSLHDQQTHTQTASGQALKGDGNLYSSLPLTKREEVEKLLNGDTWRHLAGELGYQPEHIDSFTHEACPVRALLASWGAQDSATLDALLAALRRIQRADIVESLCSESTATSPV
# [2] = target: T2, p75^NTR (Homo sapiens, UniProt P08138); test: Th2 prone GvHD xenotransplantation model: NSG mice given human autologous T-cells and PDCs
# T2 sequence (P08138 29-427): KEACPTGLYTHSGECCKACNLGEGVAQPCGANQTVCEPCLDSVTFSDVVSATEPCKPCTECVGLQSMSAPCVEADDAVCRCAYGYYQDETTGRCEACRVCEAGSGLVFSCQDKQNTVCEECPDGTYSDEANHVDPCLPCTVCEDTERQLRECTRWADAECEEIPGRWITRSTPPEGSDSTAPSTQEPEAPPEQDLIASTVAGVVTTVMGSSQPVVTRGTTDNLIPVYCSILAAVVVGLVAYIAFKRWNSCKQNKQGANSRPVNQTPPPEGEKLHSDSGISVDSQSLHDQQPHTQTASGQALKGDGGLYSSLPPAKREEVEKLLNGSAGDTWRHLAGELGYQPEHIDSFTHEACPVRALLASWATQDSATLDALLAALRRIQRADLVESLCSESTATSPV
# Description: Recipient mice from NSG mouse strain were pre-condition by irradiation with 3 Gy 24 hours before transplantation of human cells
# For scoring of GvHD incidence and survival transplanted mice were monitored daily for weight, behaviour, skin, activity, fur and other parameters.
# Human, autologous T-cells and PDCs were stimulated either with CpG B or not. Overnight co-cultured was done in the absence or presence of NGF. One day later human cells were transplanted into irradiated NSG mice by i.v. injection.
# [3] = target: T2, p75^NTR; test: IL-6 produced by anti-FcεRIα activated human PDC (ELISA); format: cell-based; parameters: nerve growth factor receptor p75^NTR, which is expressed by human and murine plasmacytoid dendritic cells (PDC); endogenous in cells; host or cells: primary human plasmacytoid dendritic cells (BDCA-4+ selection) from buffy coats or from peripheral blood of allergic donors; conditions: anti-FcεRIα-FITC activated PDC with NGF 25 ng/ml vs without NGF; p=0.0066
# Description: PDC isolated from peripheral blood were taken in RPMI 1640 medium (PAA) with penicillin G (100 U/ml), streptomycin ([…]), L-glutamine (2 mM), 10% heat inactivated FBS and IL-3 (R&D system) at 10 ng/ml. 2×10^5 cells were seeded per well in 200 μl medium in U-shaped bottom 96-well plate and incubated at 5% CO2 and 37° C. For IL-6 generation, mouse anti human FcεRI alpha-FITC (eBioscience) was added at 250 ng/ml to designated wells. p75^NTR blocking peptide TAT-Pep5 (Calbiochem) was employed at 100 nM to designated wells. NGF (R&D Systems) was added at concentration of 25 ng/ml to specified wells. All components were added following the sequence mentioned After 14 hour's stimulation the plate was centrifuged (270 g for 5 minutes). Supernatant was analyzed for IL-6 by ELISA (Bender MedSystems).
# IL-6 ELISA was carried out following manufacturer's specifications with few modifications. […] Absorbance of whole plate was read on spectrophotometer at 450 nm as primary wave length and 620 nm as reference wave length. […]
# We activated peripheral blood purified PDC by cross linking FcεRIα with anti-FcεRIα-FITC in the presence and absence of NGF at 25 ng/ml in-vitro. Supernatant was harvested after 12 hrs of activation and amount of IL-6 secreted was determined by ELISA. We have analysed 18 buffy coat samples.
# [4] = p75^NTR+/+ PDCs stimulated with CpG B, presence of NGF
# [5] = p75^NTR+/+ PDCs stimulated with ovalbumin (OVA), NGF added
substance,measurement,setting,value
"NGF: Nerve growth factor, best characterized neurotrophin; natural p75^NTR agonist (R&D Systems)",expression of MHC-II,"[1]; p75^NTR+/+ PDCs stimulated with CpG A, presence of NGF",reduced expression; also recorded: decreased expression
same,expression of MHC I,[1]; [4],further increased expression
same,expression of MHC-II,[1]; [4],increased expression; also recorded: further increase
same,expression of ICOS-L and MHC-II,[1]; [5],further increased; also recorded: increased expression
same,"expression of MHC-I, PD-L1 and Ox40-L",[1]; [5],altered the expression; also recorded: decreased expression
same,"expression of MHC-I, PD-L1 and Ox40-L on p75^NTR−/− PDCs","[1]; p75^NTR−/− PDCs stimulated with ovalbumin, NGF added",but not on p75^NTR−/− PDCs
same,mortality (survival),[2]; CpG B stimulated PDCs co-cultured in presence of NGF before transplantation,significantly increased mortality
same,severity of GvHD (cumulative GvHD incidence),"[2]; CpG B stimulated PDCs co-cultured with T-cells in presence of NGF before i.v. transplantation, 12 weeks",increased severity of GvHD
same,cumulative GvHD incidence or survival without CpG B,"[2]; PDCs cultured without TLR stimulating CpG B, data not shown",no NGF dependent effect; also recorded: abolished the accelerating NGF effect
same,production of IL-6,[3],significantly increased
